From patent US20230295336A1 (INHIBRX, published 2023) come the findings set out here.

The target of assay [1] is T1, CD3 on the surface of primary T cells (human, UniProt P07766 23-207).
T1 construct: whole, on cells; CD3 is a multimeric complex (ε, γ, δ, ζ chains) with the TCR; In the reporter assays CD3 stood on Jurkat cells; also called CD3ε
The assay can be described thus: flow cytometry on isolated primary T cells, anti-human IgG Fc secondary. The protocol:
(§1) Binding of exemplary multispecific polypeptide constructs of the disclosure containing an antigen-binding domain directed against Folate Receptor Alpha (FRα) to CD3 on the surface of primary T cells and to FRα expressing cells (Ovcar-5) was assessed by flow cytometry. The tumor antigen binding domains of the tested constructs bind the Folate Receptor Alpha (FRα), which is not expressed on the primary T cells. The tested constructs included cx1356 and cx681, containing a non-cleavable linker of 3 amino acids in cx1356 or a non-cleavable linker of 18 amino acids in cx681 (see FIG. 2B and Table E1.1).
(§2) For the studies described in FIGS. 5A and 5B, 100 nM of each construct, cx1356 or cx681 was used and assessed for binding to either the Ovcar-5 cells or primary T-cells. An anti-CD3 antibody was included as a control. A titration of the constrained CD3 engaging constructs on either FRα expressing cells (Ovcar-5; FIG. 5C) or isolated primary T-cells (FRα negative; FIG. 5D), was conducted to assess binding. Bound constructs were detected using fluorophore-conjugated anti-human IgG Fc secondary antibody.

Assay [2] concerns the target T2, Folate Receptor Alpha (FRα) (UniProt P15328 25-234, limits assumed).
T2 construct: whole, on cells; also called FR-Alpha
The assay is described as follows: flow cytometry on Ovcar-5 cells, anti-human IgG Fc secondary. On the procedure:
as §1, §2

Assay [3] addresses T1, CD3 on the surface of primary T cells. The assay can be described thus: flow cytometry on isolated T cells. On the procedure:
(§3) Binding of exemplary multispecific constructs containing an antigen-binding domain directed against B7H3 were assessed for binding to B7H3 positive A375 tumor cells or primary T-cells. The constructs were generated containing antigen-binding domain(s) that were either sdAbs or a FABs, and that were positioned either only N-terminal to the Fc or both N-terminal to the Fc and C-terminal to the anti-CD3 binding domain (see FIGS. 3A and 3C and Table E1.1). Among the various formats of constructs tested included: sdAb-Fc-dsFV-sdAb (cx3072, cx5952) sdAb-Fc-FV (cx6079), sdAb-Fc-dsFV (cs6080, cx6081), MAB-FV (cx5067) and MAB-dsFV (cx6083, cx6084), where the FV represents the anti-CD3 binding domain composed of VH and VL domain pairs and “ds” notes disulfide stabilized via an engineered interdomain disulfide bond.
(§4) Binding was assessed as described above via flow cytometry using a fluorophore-conjugated anti-human Fc secondary antibody. cx3072 bound to A375 cells with high affinity (FIG. 6A) but not to isolated T-cells (FIG. 6B). […]

The target in a further assay is T3, B7H3 (CD276) (human, UniProt Q5ZPR3 29-534).
T3 construct: whole, on cells
T3 sequence (looked up): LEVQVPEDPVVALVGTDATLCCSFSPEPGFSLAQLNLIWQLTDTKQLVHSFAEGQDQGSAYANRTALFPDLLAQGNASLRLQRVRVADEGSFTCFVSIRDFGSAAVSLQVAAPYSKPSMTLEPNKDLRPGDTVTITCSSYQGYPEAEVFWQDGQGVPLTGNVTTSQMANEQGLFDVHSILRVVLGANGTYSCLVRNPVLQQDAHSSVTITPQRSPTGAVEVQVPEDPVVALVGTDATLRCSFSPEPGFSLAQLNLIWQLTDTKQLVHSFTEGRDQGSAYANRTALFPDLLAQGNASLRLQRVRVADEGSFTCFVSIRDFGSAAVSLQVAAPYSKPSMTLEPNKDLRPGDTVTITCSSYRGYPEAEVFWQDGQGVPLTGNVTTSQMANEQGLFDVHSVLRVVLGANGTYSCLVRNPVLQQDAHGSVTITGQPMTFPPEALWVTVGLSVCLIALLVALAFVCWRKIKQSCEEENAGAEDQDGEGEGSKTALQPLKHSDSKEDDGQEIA
The assay can be described thus: flow cytometry on A375 cells. The protocol: as §3, §4

T1 sequence (P07766 23-207): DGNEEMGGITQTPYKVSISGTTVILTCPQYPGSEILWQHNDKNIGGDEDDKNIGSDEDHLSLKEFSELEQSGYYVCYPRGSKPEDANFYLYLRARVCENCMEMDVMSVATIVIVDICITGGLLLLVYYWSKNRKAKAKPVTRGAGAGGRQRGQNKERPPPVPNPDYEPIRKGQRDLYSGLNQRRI
T2 sequence (P15328 25-234 limits assumed): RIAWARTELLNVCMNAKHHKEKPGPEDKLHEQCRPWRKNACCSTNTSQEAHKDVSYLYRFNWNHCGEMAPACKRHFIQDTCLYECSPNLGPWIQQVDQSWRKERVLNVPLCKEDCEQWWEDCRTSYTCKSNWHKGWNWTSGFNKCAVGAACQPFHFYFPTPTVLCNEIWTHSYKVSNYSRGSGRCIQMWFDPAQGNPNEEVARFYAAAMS

B1: cx1356 (bispecific antibody)
chain 1: not shown
chain 2: QLQLQESGGGLVQPGGSLRLSCAASGFTLDNYAIGWFRQAPGKEREGVSCISSSDGSTYYADSVKGRFTISRNNAKGTVYLLMNSLKPEDTAVYYCATELVPACTYSNGRGPLDGMDYWGKGTQVTVKPPGGGGDKTHTCPPCPAPELLGGPSVFLFPPKPKDTLMRSRTPEVTCVVVDVSHEDPEVKFNWYVDGVEVHNAKTKPREEQYNSTYRVVSVLTVLHQDWLNGKEYKCKVSNKALPAPIEKTISKAKGQPREPQVCTLPPSRDELTKNQVSLSCAVKGFYPSDIAVEWESNGQPENNYKTTPPVLDSDGSFFLVSKLTVDKSRWQQGNVFSCSVMHEALHNHYTQKSLSLSPGGSQAVVTQEPSLTVSPGGTVTLTCGSSTGAVTTSNYANWVQQKPGKSPRGLIGGTNKRAPGVPARFSGSLLGGKAALTISGAQPEDEADYYCALWYSNHWVFGCGTKLTVLGGGGEVQLLESGGGEVQPGGSLRLSCAASGSIFSIDATAWYRQAPGKQRELVAIITSSGSTNYPESVKGRFTISRDNAKNTVYLQMSSLRAEDTAVYYCNAITRYGGSTYDFWGQGTLVTVKP
notes: Heterodimer of chain 1 and chain 2; anti-CD3 Fv disulfide-stabilized (VH G44C / VL G100C); the shortest entry is written; also called FRα-targeting constrained CD3 engaging construct; gs3 linker
B1: the binding result in assay [1] is “no binding (tested: 100 nM)”; in assay [2], “binds”.

B2: cx5952 (bispecific antibody)
chain 1: EVQLVESGGGEVQPGGSLRLSCAASGFSFSSNVMMWVRQAPGKGLEWVSTIYSSGTGTFYAESVKGRFTISRDNAKNTLYLQMSSLRPEDTAVYYCATSGPVRGWGPRSQGTLVTVKPPGGGGDKTHTCPPCPAPGGPSVFLFPPKPKDTLMISRTPEVTCVVVDVSHEDPEVKFNWYVDGVEVHNAKTKPREEQYNSTYRVVSVLTVLHQDWLNGKEYKCKVSNKALPAPIEKTISKAKGQPREPQVYTLPPCRDELTKNQVSLWCLVKGFYPSDIAVEWESNGQPENNYKTTPPVLDSDGSFFLYSKLTVDKSRWQQGNVFSCSVMHEALHNHYTQKSLSLSPGGGGGGSGGGGGSGGGGGSEVQLVESGGGLVQPGGSLRLSCAASGFTFNTYAMNWVRQAPGKCLEWVARIRSKYNNYATYYADSVKGRFTISRDDAKNTLYLQMSSLRAEDTAVYYCVRHGNFGNSYVSWFAYWGQGTLVTVKPGGGGEVQLVESGGGEVQPGGSLRLSCAASGFTFSSYHMSWFRQAPGKQRELVATSHHGGTTNYAGSVKGRFTISRDNAKNTVYLQMNTLRAEDTAVYYCKADHGYQGRGYWGQGTLVTVKP
chain 2: DKTHTCPPCPAPGGPSVFLFPPKPKDTLMISRTPEVTCVVVDVSHEDPEVKFNWYVDGVEVHNAKTKPREEQYNSTYRVVSVLTVLHQDWLNGKEYKCKVSNKALPAPIEKTISKAKGQPREPQVCTLPPSRDELTKNQVSLSCAVKGFYPSDIAVEWESNGQPENNYKTTPPVLDSDGSFFLVSKLTVDKSRWQQGNVFSCSVMHEALHNRYTQKSLSLSPGGGGGGSGGGGGSGGGGGSQAVVTQEPSLTVSPGGTVTLTCGSSTGAVTTSNYANWVQQKPGQAFRGLIGGTNKRAPGVPARFSGSLLGGKAALTISGAQPEDEADYYCALWYSNHWVFGCGTKLEIK
notes: Heterodimer of chain 1 and chain 2; anti-CD3 Fv disulfide-stabilized (VH G44C / VL G100C); also called B7H3-targeting constrained CD3 engaging construct; sdAb-Fc-dsFV-sdAb
Consider B2, for which, in assay [3], the binding result is “no binding”.

B3: cx6079 (bispecific antibody)
chain 1: EVQLVESGGGEVQPGGSLRLSCAASGFSFSSNVMMWVRQAPGKGLEWVSTIYSSGTGTFYAESVKGRFTISRDNAKNTLYLQMSSLRPEDTAVYYCATSGPVRGWGPRSQGTLVTVKPPGGGGDKTHTCPPCPAPPVAGPSVFLFPPKPKDTLMISRTPEVTCVVVDVKHEDPEVKFNWYVDGVEVHNAKTKPREEEYNSTYRVVSVLTVLHQDWLNGKEYKCKVSNKALPAPIEKTISKAKGQPREPQVYTLPPSREEMTKNQVSLTCDVSGFYPSDIAVEWESDGQPENNYKTTPPVLDSDGSFFLYSKLTVDKSRWEQGDVFSCSVMHEALHNHYTQKSLSLSPGKGGGGSGGGGSGGGGSEVQLVESGGGLVQPGGSLRLSCAASGFTFSTYAMNWVRQAPGKGLEWVGRIRSKYNNYATYYADSVKGRFTISRDDSKNTLYLQMNSLRAEDTAVYYCVRHGNFGDSYVSWFAYWGQGTLVTVSS
chain 2: EVQLVESGGGEVQPGGSLRLSCAASGFSFSSNVMMWVRQAPGKGLEWVSTIYSSGTGTFYAESVKGRFTISRDNAKNTLYLQMSSLRPEDTAVYYCATSGPVRGWGPRSQGTLVTVKPPGGGGDKTHTCPPCPAPPVAGPSVFLFPPKPKDTLMISRTPEVTCVVVDVKHEDPEVKFNWYVDGVEVHNAKTKPREEQYNSTYRVVSVLTVLHQDWLNGKEYKCKVSNKALPAPIEKTISKAKGQPREPQVYTLPPSREQMTKNQVKLTCLVKGFYPSDIAVEWESNGQPENNYKTTPPVLDSDGSFFLYSKLTVDKSRWQQGNVFSCSVMHEALHNHYTQKSLSLSPGKGGGGSGGGGSGGGGSQAVVTQEPSLTVSPGGTVTLTCGSSTGAVTTSNYANWVQQKPGKSPRGLIGGTNKRAPGVPARFSGSLLGGKAALTISGAQPEDEADYYCALWYSNHWVFGGGTKLTVL
notes: Heterodimer of chain 1 and chain 2; anti-CD3 Fv not disulfide-stabilized; two identical B7H3 sdAbs, both N-terminal to the Fc; also called B7H3-targeting constrained CD3 engaging construct; sdAb-Fc-FV
In the case of B3, the binding result is given as “no binding” in assay [3] and “binds” in the assay with B7H3 (CD276).

B4: cx681 (bispecific antibody)
chain 1: not shown
chain 2: QLQLQESGGGLVQPGGSLRLSCAASGFTLDNYAIGWFRQAPGKEREGVSCISSSDGSTYYADSVKGRFTISRNNAKGTVYLLMNSLKPEDTAVYYCATELVPACTYSNGRGPLDGMDYWGKGTQVTVKPPGGGGDKTHTCPPCPAPELLGGPSVFLFPPKPKDTLMRSRTPEVTCVVVDVSHEDPEVKFNWYVDGVEVHNAKTKPREEQYNSTYRVVSVLTVLHQDWLNGKEYKCKVSNKALPAPIEKTISKAKGQPREPQVCTLPPSRDELTKNQVSLSCAVKGFYPSDIAVEWESNGQPENNYKTTPPVLDSDGSFFLVSKLTVDKSRWQQGNVFSCSVMHEALHNHYTQKSLSLSPGGSGGGGSGGGGSGGGGSQAVVTQEPSLTVSPGGTVTLTCGSSTGAVTTSNYANWVQQKPGKSPRGLIGGTNKRAPGVPARFSGSLLGGKAALTISGAQPEDEADYYCALWYSNHWVFGCGTKLTVLGGGGEVQLLESGGGEVQPGGSLRLSCAASGSIFSIDATAWYRQAPGKQRELVAIITSSGSTNYPESVKGRFTISRDNAKNTVYLQMSSLRAEDTAVYYCNAITRYGGSTYDFWGQGTLVTVKP
notes: Heterodimer of chain 1 and chain 2; anti-CD3 Fv disulfide-stabilized (VH G44C / VL G100C); the shortest entry is written; also called FRα-targeting constrained CD3 engaging construct; gs18 linker
Regarding B4, the binding result in assay [1] is “no binding (tested: 100 nM)”; in assay [2] it was “binds”.
